Experimental findings from the supplement of paper PMC7125110 are described below.

B1: glmS ribozyme (parent)
chain: AUAAAAGCGCCAGAACUACAGAAAUGUAGUUGACGAGGAGGAGGUUUAUCGAAUUUUCGGCGGAUGCCUCCAAA

± gives the standard error. Variants at the floor of the assay were thinned out.

The first data set covers variants of B1. Description: self-cleavage kobs at 640 uM GlcN6P; higher = faster cleavage; RNA array. The note with it: with glucosamine-6-phosphate. The method in brief: (§1)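 Glucosamine-6-phosphate in HEPES/KCl/Mg(OAc)2 buffer, at 40 μM to 10 mM, was flowed over barcoded ribozyme variants transcribed in situ by E. coli RNA polymerase on sequenced MiSeq chips. Tracking was through a hybridised Cy3 probe at 37 °C. kobs, kcat and KM came from exponential decay fits and weighted Michaelis–Menten fits of normalised per-tile medians.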
Consider U65A G66A C71U, for which the “self-cleavage kobs at 640 uM GlcN6P” value was 0.000198 ± 4.2e-05 s⁻¹.
The same measure, in the same setting: the result for A12C U65G C67U reads 0.000474 ± 0.00016 s⁻¹; that for G29A G44U U54A U57A C61U C68A, < 1e-05 s⁻¹; that for C8G G43A U46G, < 1e-05 s⁻¹.
Same read-out and setting: to A39C U45G U56G belongs 7.85e-05 ± 2.3e-05 s⁻¹; to G7C C71A, < 1e-05 s⁻¹; to C11G A42U G59U, < 1e-05 s⁻¹.
Take G43U C70G C71A: the “self-cleavage kobs at 640 uM GlcN6P” value is < 1e-05 s⁻¹.
Still for that read-out and setting: to G13U G32A A36G G38U belongs < 1e-05 s⁻¹.
On the same count and under the same terms, the result for G9A C68A U69C reads < 1e-05 s⁻¹; that for A15C A33C G59C, < 1e-05 s⁻¹.
On the same count and under the same terms, the result for A6U A33G U69G reads 9.46e-05 ± 3.6e-05 s⁻¹; that for G7U G9A C58A C61A C67U, < 1e-05 s⁻¹; that for A6U C50A U65A U69C, 8.83e-05 ± 3.7e-05 s⁻¹.
For the variant A12G C16A A52U U57G, the “self-cleavage kobs at 640 uM GlcN6P” value was < 1e-05 s⁻¹.
For the variant G37U C50A G51C, the “self-cleavage kobs at 640 uM GlcN6P” value was < 1e-05 s⁻¹.
Still for that read-out and setting: the result for G7U C10U A52U reads < 1e-05 s⁻¹; that for G38A A52G C68G, 7.2e-05 ± 2.5e-05 s⁻¹; that for C8G A15U U56C, < 1e-05 s⁻¹.
On the same count and under the same terms, to C8A C11G G59C C61U belongs < 1e-05 s⁻¹; to G7U A33C U47A, < 1e-05 s⁻¹.
On the same count and under the same terms, the result for G13C U31A G38U A39U G40C reads < 1e-05 s⁻¹; that for A6G A48G C61G, < 1e-05 s⁻¹.
For G35A C50U C67G C70U, the “self-cleavage kobs at 640 uM GlcN6P” value was < 1e-05 s⁻¹.
Still for that read-out and setting: the result for C11U A36C G43U C71A reads < 1e-05 s⁻¹; that for A15G G35A G44U C50G G59C G60C, < 1e-05 s⁻¹.
The same measure, in the same setting: to C10G C16A A53U G66U U69A belongs 5.56e-05 ± 2.7e-05 s⁻¹.
Same read-out and setting: the result for A12U G59C U69A reads 0.00122 ± 0.00048 s⁻¹; that for A6G G29C G35U A42C C58G C68G, < 1e-05 s⁻¹.
In the case of G9A G35A A48C C50G, the “self-cleavage kobs at 640 uM GlcN6P” value was < 1e-05 s⁻¹.
Regarding G13A U45C G66A, the “self-cleavage kobs at 640 uM GlcN6P” value was found to be 0.000124 ± 3e-05 s⁻¹.
The same measure, in the same setting: the result for G13C G29U G41U C68A C70A reads < 1e-05 s⁻¹; that for U46G U57C G60U, < 1e-05 s⁻¹.
On the same count and under the same terms, to A33C A42U belongs < 1e-05 s⁻¹; to A52C U54G, < 1e-05 s⁻¹; to A42U C58A C61G, < 1e-05 s⁻¹.
Regarding A14G A33G G37A C50G C70G, the “self-cleavage kobs at 640 uM GlcN6P” value was 6.3e-05 ± 2.1e-05 s⁻¹.
In the case of C8A C10G A15G C16G C50A G63U, the “self-cleavage kobs at 640 uM GlcN6P” value was < 1e-05 s⁻¹.
The same measure, in the same setting: the result for A1U U2G A3G C70A reads 0.000245 ± 0.00011 s⁻¹; that for A12C U47C U65C, < 1e-05 s⁻¹; that for G44A U55A G59U, < 1e-05 s⁻¹.
Still for that read-out and setting: the result for G43A G51U U65A G66U reads < 1e-05 s⁻¹.
The same measure, in the same setting: the result for A6C G40C G60U reads < 1e-05 s⁻¹; that for A33C A52G C67U, < 1e-05 s⁻¹.
Turning to C8U C50A, the “self-cleavage kobs at 640 uM GlcN6P” value was < 1e-05 s⁻¹.
U49C U55C: the “self-cleavage kobs at 640 uM GlcN6P” value was < 1e-05 s⁻¹.
The same measure, in the same setting: to A42C U56C G60U belongs < 1e-05 s⁻¹; to U30C C34A A36G A52U, < 1e-05 s⁻¹.
Still for that read-out and setting: to G32A C34U G60A belongs < 1e-05 s⁻¹; to A12U G32C C50G C70G, 0.000371 ± 0.00015 s⁻¹; to A15C G51A G59C, < 1e-05 s⁻¹.

Variants of B1 are the subject of another data set. The experiment in a line: self-cleavage kobs at 2500 uM GlcN6P; higher = faster cleavage; RNA array. The note with it: with glucosamine-6-phosphate. The method in brief: as §1
As for U65A G66A C71U, the “self-cleavage kobs at 2500 uM GlcN6P” value is 0.000397 ± 0.0001 s⁻¹.
On the same count and under the same terms, the result for G29A G44U U54A U57A C61U C68A reads < 1e-05 s⁻¹; that for C11A G37A G38C, < 1e-05 s⁻¹; that for A12U C34U G38A C50G, 0.000122 ± 3e-05 s⁻¹.
Still for that read-out and setting: to C11G A42U G59U belongs < 1e-05 s⁻¹.
Take G43U C70G C71A: the “self-cleavage kobs at 2500 uM GlcN6P” value was < 1e-05 s⁻¹.
On the same count and under the same terms, the result for G13A A33C A48C reads < 1e-05 s⁻¹; that for A15C A33C G59C, < 1e-05 s⁻¹; that for A6U A33G U69G, 0.000191 ± 6.5e-05 s⁻¹.
In the case of G7U G9A C58A C61A C67U, the “self-cleavage kobs at 2500 uM GlcN6P” value was < 1e-05 s⁻¹.
The same measure, in the same setting: the result for G29U U45A U54C U55C G62C reads < 1e-05 s⁻¹; that for C34G G51U U56C C67U, < 1e-05 s⁻¹; that for C8G A15U U56C, < 1e-05 s⁻¹.
In the case of A39U U65C C67G, the “self-cleavage kobs at 2500 uM GlcN6P” value is 0.000168 ± 5.5e-05 s⁻¹.
Still for that read-out and setting: the result for C8A C11G G59C C61U reads < 1e-05 s⁻¹; that for G7U A33C U47A, < 1e-05 s⁻¹.
The same measure, in the same setting: the result for C10U A15G G44U C50G reads < 1e-05 s⁻¹; that for A14G A39U C67A, 0.0121 ± 0.003 s⁻¹.
Same read-out and setting: the result for A12G A36C G62U reads < 1e-05 s⁻¹; that for G9A G37A G38U, < 1e-05 s⁻¹.
C10G C16A A53U G66U U69A: the “self-cleavage kobs at 2500 uM GlcN6P” value was 4.65e-05 ± 2e-05 s⁻¹.
Regarding G9A G35A A48C C50G, the “self-cleavage kobs at 2500 uM GlcN6P” value is < 1e-05 s⁻¹.
On to G13A U45C G66A, for which the “self-cleavage kobs at 2500 uM GlcN6P” value was determined as 9.89e-05 ± 2.4e-05 s⁻¹.
The same measure, in the same setting: the result for C10U G51C G59U C67U reads < 1e-05 s⁻¹.
Regarding C16A A42U A64U, the “self-cleavage kobs at 2500 uM GlcN6P” value was < 1e-05 s⁻¹.
Same read-out and setting: the result for A33U C34U A39C reads < 1e-05 s⁻¹; that for A33C A42U, < 1e-05 s⁻¹.
Same read-out and setting: the result for A42U C58A C61G reads < 1e-05 s⁻¹.
As to A14G A33G G37A C50G C70G, the “self-cleavage kobs at 2500 uM GlcN6P” value was 4.9e-05 ± 1.5e-05 s⁻¹.
Regarding C11U U54C G66U, the “self-cleavage kobs at 2500 uM GlcN6P” value was found to be 9.68e-05 ± 3.4e-05 s⁻¹.
Still for that read-out and setting: to G44A U55A G59U belongs < 1e-05 s⁻¹; to G43A G51U U65A G66U, < 1e-05 s⁻¹.
Take C8G A12U C16U G43U: the “self-cleavage kobs at 2500 uM GlcN6P” value is < 1e-05 s⁻¹.
Same read-out and setting: the result for A33C A52G C67U reads < 1e-05 s⁻¹.
On the same count and under the same terms, to A12G G32U A36U U49A C50G belongs < 1e-05 s⁻¹; to C8U C50A, < 1e-05 s⁻¹.
On the same count and under the same terms, to U49C U55C belongs < 1e-05 s⁻¹.
Take G29U U56A C68U: the “self-cleavage kobs at 2500 uM GlcN6P” value was 0.000413 ± 6.5e-05 s⁻¹.
On the same count and under the same terms, the result for C10U A33U G40C C50U reads < 1e-05 s⁻¹.
Still for that read-out and setting: the result for U30C C34A A36G A52U reads < 1e-05 s⁻¹; that for G32A C34U G60A, < 1e-05 s⁻¹; that for A12U G32C C50G C70G, 0.000257 ± 8.3e-05 s⁻¹.
Same read-out and setting: to A15C G51A G59C belongs < 1e-05 s⁻¹; to G7U C8U G32U C50U, < 1e-05 s⁻¹.

Variants of B1 are the subject of a further data set. The experiment in a line: self-cleavage kobs at 10000 uM GlcN6P; higher = faster cleavage; RNA array. The note with it: with glucosamine-6-phosphate. An outline of the steps:
as §1
On to A12C U65G C67U, for which the “self-cleavage kobs at 10000 uM GlcN6P” value is 0.00133 ± 0.00031 s⁻¹.
For C8G G43A U46G, the “self-cleavage kobs at 10000 uM GlcN6P” value is < 1e-05 s⁻¹.
Still for that read-out and setting: to G7C C71A belongs < 1e-05 s⁻¹; to C8G A15U U56C, < 1e-05 s⁻¹; to A39U U65C C67G, 0.00025 ± 6e-05 s⁻¹.
In the case of G13A U45C G66A, the “self-cleavage kobs at 10000 uM GlcN6P” value is 0.000343 ± 0.00011 s⁻¹.
On the same count and under the same terms, the result for C8U C50A reads < 1e-05 s⁻¹.
